Measurements published in patent publication US20060058231A1.
Where a chain is given by its changes, count along the chain named. Blank lines part the entries; values can stand above or below the binder they belong to.

Biological target: anti-BMP-7 antibodies of the commercial ELISA (R&D Systems ELISA Duoset Cat#DY354)
Experiment: sandwich ELISA (R&D Systems BMP7 ELISA Cat#DY354), BMP-7 protein titrated, % ELISA signal; the EC50 column carries no unit, the concentration axis is in ug/mL

- EC50: 1.74 ng/mL
B1: 492 (ligand)
BMP-7 mature domain: STGGKQRSQNRSKTPKNQEALRMASVAENSSSDQRQACKKHELYVSFRDLGWQDWIIAPEGYAANYCEGECAFPLNSHMNATNHAIVQTLVHFINPETVPKPCCAPTQLNAISVLYFDDSSNVILKKYRNMVVRACGCH

- EC50: 0.755 ng/mL
B2: 471 (ligand)
BMP-7 mature domain: B1 BMP-7 mature domain with K39S, N65Y, H78Y, N130D
